Assay results reported in article PMC11770335.

Key:
[1] = target: E. coli Hfq V22A (E. coli) (UniProt P0A6X3); experiment: crystal structure; co-crystal of Hfq V22A with A17 RNA; 15% PEGSH, 0.15 M ammonium acetate, 0.1 M trisodium citrate pH 5; 2.1 Å
[2] = target: E. coli Hfq V22A (E. coli) (UniProt P0A6X3); experiment: crystal structure; co-crystal of Hfq V22A with pA4 RNA; 22.5% PEGSB, 0.2 M LiSO4, 0.05 M zinc acetate, 0.1 M Bis-Tris pH 7.5; roughly 3.0 Å

stoichiometry N [1]: 6 | stoichiometry N [2]: 6
Substance: E. coli Hfq V22A (from UniProt P0A6X3 1-102) (natural protein)
